Test results from patent US20190203224A1.

Assays:
[1] = biological target: Brush border membrane vesicles (BBMV) prepared from midguts of third instar western corn rootworm (Diabrotica virgifera virgifera LeConte) larvae; putative receptor(s) on the BBMV (Diabrotica virgifera virgifera)
[2] = biological target: Brush border membrane vesicles (BBMV) prepared from midguts of third instar western corn rootworm (Diabrotica virgifera virgifera LeConte) larvae; putative receptor(s) on the BBMV (Diabrotica virgifera virgifera); remark: listed apart in the source

Substance: Cry3Aa trypsin core (trypsin-truncated Cry3Aa core protein) (from UniProt P0A379 159-644)
- Kd [1]: 24 nM
- Bmax (binding site concentration) (pmole/ug BBMV) [2]: 146

Substance: Cry35Ab1 chymotrypsin core (chymotrypsin-truncated Cry35Ab1 core protein) (from UniProt Q939S9 1-354)
- Kd [1]: 2.31 nM
- Bmax (binding site concentration) (pmole/ug BBMV) [2]: 31.7
